Experimental findings from patent publication US20250170263A1 (AbbVie / Abbott, published 2025) are described below.

Experiment [1] has as its target T1, EGFRvIII (hEGFR de2-7) [EGFR(H)(1-29)-G-(298-645)], EGFR(h)(1-29)-G-(298-645)-LESRGPF-Myc-NMHTG-6His (human, UniProt P00533 298-645).
T1 construct: Recombinant soluble ECD secreted from HEK293 cells; not shown: Myc tag
The experiment in a line: SPR, Biacore T200, 25 C, anti-Fc capture of ADC, EGFR ECD as analyte, 1:1 model. The method, then: (§1) Binding kinetics for AM2 and AM2-AAA for recombinant soluble EGFR extracellular domains (ECDs) were determined by surface plasmon resonance-based measurements made on a Biacore T200 instrument (GE Healthcare) at 25° C. using an anti-Fc capture assay approach. Recombinant soluble ECDs for the three isoforms of EGFR were expressed from transiently transfected HEK293 cells as secreted proteins with a C-terminal myc and histidine tag, and purified by Ni-IMAC (immobilized metal affinity chromatography) and SEC. In particular, the EGFR ECD tested included amino acids 1-645 of EGFR fused to a myc and histidine tag [(EGFR (1-645)-LESRGPF-Myc-NMHTG-6His (“LESRGPF” (SEQ ID NO: 27))]. The EGFRvIII variant was also fused to a myc and histidine tag (EGFR(h)(1-29)-G-(298-645)-LESRGPF-Myc-NMHTG-6His), as was the ECD EGFR 1-525 [EGFR1(h)(1-525)]-LESRGPF-Myc-NMHTG-6His (“LESRGPF” (SEQ ID NO: 28))]. All ECDs were expressed with the signal sequence […] which was cleaved during secretion.
(§2) Chip preparation and binding kinetic measurements were made in the assay buffer HBS-EP+ (10 mM Hepes, pH 7.4, 150 mM NaCl, 3 mM EDTA, 0.05% Tween 20). For anti-Fc capture chip preparation, approximately 2000 RU of goat anti-human IgG Fc polyclonal antibody (Thermo Fisher Scientific Inc., cat. 31125), diluted to 25 μg/mL in 10 mM sodium acetate (pH 4.5) was directly immobilized across a CM5 biosensor chip using a standard amine coupling kit according to manufacturer's instructions and procedures (GE Healthcare). Unreacted moieties on the biosensor surface were blocked with ethanolamine. For binding kinetics measurements each assay cycle consisted of the following steps: (1) capture of test antibody on test surface only; (2) analyte injection (EGFR ECD or buffer only) over both reference and test surface (240 μL at 80 μl/min), after which the dissociation was monitored for 900 seconds at 80 μl/min; (3) regeneration of the capture surface by 10 mM Glycine-HCl, pH 1.5 injections over both reference and test surface.
(§3) For kinetic determinations, analytes were randomized 3-fold dilution series from 3 uM top dose. During the assay, all measurements were referenced against the capture surface alone (i.e., with no captured test antibody) and buffer-only injections were used for secondary referencing.
(In SPR one partner is held on a chip, and binding of the other changes the refractive index at the surface.)

In experiment [2] the target is T2, truncated wild-type EGFR 1-525, [EGFR1(h)(1-525)]-LESRGPF-Myc-NMHTG-6His (human, UniProt P00533 25-525).
T2 construct: Recombinant soluble truncated ECD secreted from HEK293 cells; also called EGFRs1-501; ECD EGFR 1-525; not shown: Myc tag
The experiment is described as above. As for the experimental part:
as §1, §2, §3

For experiment [3], the target named is T3, wt EGFR overexpressed on the surface of A431 (A-431, human epidermoid carcinoma) cells (human, UniProt P00533 25-1210). The experiment in a line: cell-based or functional assay.
For experiment [4], the target named is T3, wt EGFR overexpressed on the surface of …. The experiment in a line: cell-based or functional assay. The source holds these as a separate data set.
Experiment [5] shares this target. The experiment in a line: FACS on A-431 cells, 1 h at 4 C, AlexaFluor 488 secondary antibody, geometric mean fluorescence. As for the experimental part: To assay binding of AM2-AAA to cell surface overexpressed wt EGFR and to mutant forms of EGFR including the activating mutations found in NSCLC (mutEGFR), tumor cells overexpressing wt EGFR (A431) and mutEGFR (NCI-H1650) were assessed by fluorescence activated cell sorting (FACS).
Cells were harvested from flasks when at approximately 1.5×10⁶ cells/mL. Cells were washed once in PBS/1% FBS (FACS buffer) then resuspended at 2.5×10⁶ cells/mL in FACS buffer. 50 μL of cells were added to a round bottom 96-well plate. 50 μL of a 2× concentration of mAb/ADC (final concentrations are indicated in the figures) was added to wells and the plate was incubated at 4° C. for one hour. The cells were washed twice in FACS buffer and resuspended in 50 μL of a 1:100 dilution of secondary Ab (AlexaFluor 488, Invitrogen, 11013) diluted in FACS buffer. The plate was incubated at 4° C. for one hour and washed twice with FACS buffer. Cells were resuspended in 100 μL of PBS/1% formaldehyde and analyzed on a Becton Dickinson FACSCanto II flow cytometer. Data was analyzed using WinList flow cytometry analysis software.

Experiment [6] concerns the target mutEGFR on NCI-H1650 (non-small cell lung cancer) cells (human). Put plainly: cell-based or functional assay.
The target in experiment [7] is T4, wild-type EGFR extra-cellular domain (ECD), EGFR (1-645)-LESRGPF-Myc-NMHTG-6His (human, UniProt P00533 25-645).
T4 construct: Recombinant soluble ECD secreted from HEK293 cells; also called hEGFR WT; EGFR(h)(1-645); not shown: Myc tag
Put plainly: SPR, Biacore T200, ADC captured by anti-Fc, EGFR ECD as analyte. The method, then:
(§4) Binding kinetics for AM2 and AM2-AAA for recombinant soluble EGFR extracellular domains (ECDs) were determined by surface plasmon resonance-based measurements made on a Biacore T200 instrument (GE Healthcare) at 25° C. using an anti-Fc capture assay approach. Recombinant soluble ECDs for the three isoforms of EGFR were expressed from transiently transfected HEK293 cells as secreted proteins with a C-terminal myc and histidine tag, and purified by Ni-IMAC (immobilized metal affinity chromatography) and SEC. […]
(§5) Chip preparation and binding kinetic measurements were made in the assay buffer HBS-EP+ (10 mM Hepes, pH 7.4, 150 mM NaCl, 3 mM EDTA, 0.05% Tween 20). […] For binding kinetics measurements each assay cycle consisted of the following steps: (1) capture of test antibody on test surface only; (2) analyte injection (EGFR ECD or buffer only) over both reference and test surface (240 μL at 80 μl/min), after which the dissociation was monitored for 900 seconds at 80 μl/min; (3) regeneration of the capture surface by 10 mM Glycine-HCl, pH 1.5 injections over both reference and test surface. […]

In experiment [8] the target is T1, EGFRvIII (hEGFR de2-7) …. The experiment in a line: SPR, Biacore T200, 25 C, anti-Fc capture of antibody, EGFR ECD as analyte, 1:1 model. The method, then:
as §1, §2, §3

In experiment [9] the target is T2, truncated wild-type EGFR 1-525, …. The experiment is described as above. The method, then: as §1, §2, §3
The target in experiment [10] is T4, wild-type EGFR extra-cellular domain …. Put plainly: SPR, Biacore T200, antibody captured by anti-Fc, EGFR ECD as analyte. As for the experimental part:
as §4, §5

As a reminder, the Kd is the equilibrium constant for the complex coming apart. One may read the koff as a measure of how fast the partners let go of each other. Low readings indicate a long-lived complex, high ones a short-lived complex. As a reminder, the kon is the rate constant with which the complex forms. High values mean fast association, low ones slow association. The EC50 (read off the curve) is the concentration needed to bring the measured effect to its halfway point.

B1: AM2-AAA ADC (antibody, human IgG1, kappa, L234A L235A, DAR 2, V domains shown)
VH: EVQLQESGPGLVKPSQTLSLTCTVSGYSISNDFAWNWIRQPPGKGLEWMGYISYKGNTRYQPSLKSRITISRDTSKNQFFLKLNSVTAADTATYYCVTASRGFPWWGQGTLVTVSS
VL: DIQMTQSPSSMSVSVGDRVTITCHSSQDINSNIGWLQQKPGKSFKGLIYHGTNLDDGVPSRFSGSGSGTDYTLTISSLQPEDFATYYCVQYAQFPWTFGGGTKLEIKR
modifications: AAA synthon (Bcl-xL inhibitor drug-linker) conjugated through C220 of the heavy chain (i.e., C219 of SEQ ID NO: 1); average DAR 2
notes: Antibody-drug conjugate: the AM2 antibody conjugated to the AAA synthon, average DAR 2; The conjugation site (C220) is stated only in the summary and embodiments
Consider B1, for which, in [1], the Kd is 4.9 nM, the koff came to 0.00017 s⁻¹ and the kon worked out at 35000 M⁻¹ s⁻¹. Besides, in experiment [2], binding was put at a Kd of 400 nM, the koff was 0.0012 s⁻¹ and the kon is 2900 M⁻¹ s⁻¹. In addition, the “IC50 (read off the curve), % Bim bound to BCL-xl in A-431 cells” value in [3] is roughly 3 nM. Also, the “EC50 (read off the curve), caspase 3/7 activity fold change in A431 cells” value in [4] was roughly 7 nM. Moreover, the “EC50 (read off the curve)” value in [5] was roughly 100 nM. Besides, the “IC50 (read off the curve), % Bim bound to BCL-xl in NCI-H1650 cells” value in [6] is roughly 20 nM. Also, in experiment [7], the binding result is recorded as “no binding (tested: 3 µM top dose)”.

B2: AM2 antibody (antibody, human IgG1, kappa, L234A L235A, V domains shown)
VH: EVQLQESGPGLVKPSQTLSLTCTVSGYSISNDFAWNWIRQPPGKGLEWMGYISYKGNTRYQPSLKSRITISRDTSKNQFFLKLNSVTAADTATYYCVTASRGFPWWGQGTLVTVSS
VL: DIQMTQSPSSMSVSVGDRVTITCHSSQDINSNIGWLQQKPGKSFKGLIYHGTNLDDGVPSRFSGSGSGTDYTLTISSLQPEDFATYYCVQYAQFPWTFGGGTKLEIKR
notes: Humanized IgG1, z,a allotype, with the LALA mutation (L234A, L235A) and LC:C214A (C6v1); Expressed in HEK293 cells; also called EGFR AM2 antibody
B2: the “EC50 (read off the curve)” value in [5] was roughly 80 nM. In experiment [8], the Kd stood at 5 nM, the koff came out at 0.00017 s⁻¹ and the kon stood at 33000 M⁻¹ s⁻¹. In experiment [9], this molecule gave a Kd of 420 nM, a koff of 0.0012 s⁻¹ and a kon of 2800 M⁻¹ s⁻¹. For the same molecule, in experiment [10], the binding result is reported as “no binding (tested: 3 µM top dose)”.
